These results are taken from publication PMC6400186, “Structure of mammalian plasma fetuin-B and its mechanism of selective metallopeptidase inhibition” (IUCrJ, 2019).

Where only a bound is given, the exact number is not on record here.

Common to all, as to assay: enzyme inhibition assay (fluorogenic substrate), Ki by Morrison's equation; fetuin-B variant titrated against enzyme; 37°C, 150 mM sodium chloride, 50 mM Tris-HCl pH 7.4, 0.01% Brij 35, triplicate; enzyme and substrate 1.0 nM and 195 µM for astacin, 0.5 nM and 26 µM for meprin β, 0.7 nM and 26 µM for ovastacin
Common to all, as to settings: both partners purified

One assay has as its target T1, mouse ovastacin (mouse, UniProt Q6HA09 85-435).
T1 sequence (looked up): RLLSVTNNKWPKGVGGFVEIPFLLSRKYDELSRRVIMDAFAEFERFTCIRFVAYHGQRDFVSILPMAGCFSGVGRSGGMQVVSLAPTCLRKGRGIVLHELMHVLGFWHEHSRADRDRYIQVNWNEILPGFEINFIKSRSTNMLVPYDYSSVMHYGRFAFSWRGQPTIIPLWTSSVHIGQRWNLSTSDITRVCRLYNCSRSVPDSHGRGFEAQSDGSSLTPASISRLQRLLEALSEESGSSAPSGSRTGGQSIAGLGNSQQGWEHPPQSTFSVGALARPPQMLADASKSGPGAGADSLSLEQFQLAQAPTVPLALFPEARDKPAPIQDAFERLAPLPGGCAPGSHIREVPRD

The next assay addresses T2, human meprin β (human, UniProt Q16820 62-652).
T2 sequence (looked up): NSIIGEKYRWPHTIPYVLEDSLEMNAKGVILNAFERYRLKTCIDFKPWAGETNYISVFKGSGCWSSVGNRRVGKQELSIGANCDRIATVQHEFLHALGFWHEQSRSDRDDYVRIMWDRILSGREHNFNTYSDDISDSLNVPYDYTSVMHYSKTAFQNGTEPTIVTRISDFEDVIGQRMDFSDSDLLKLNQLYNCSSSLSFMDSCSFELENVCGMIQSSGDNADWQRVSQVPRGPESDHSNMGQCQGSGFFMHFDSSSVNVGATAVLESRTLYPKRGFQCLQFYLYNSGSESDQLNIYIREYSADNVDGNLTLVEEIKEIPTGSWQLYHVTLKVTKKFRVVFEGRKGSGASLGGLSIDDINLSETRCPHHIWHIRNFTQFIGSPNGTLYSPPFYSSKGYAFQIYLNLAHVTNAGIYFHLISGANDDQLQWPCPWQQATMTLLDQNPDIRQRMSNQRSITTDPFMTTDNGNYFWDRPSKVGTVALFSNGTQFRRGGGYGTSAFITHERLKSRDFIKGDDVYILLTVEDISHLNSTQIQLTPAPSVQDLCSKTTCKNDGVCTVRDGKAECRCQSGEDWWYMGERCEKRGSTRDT

In another assay the target is T3, crayfish astacin (European freshwater crayfish Astacus …, UniProt P07584 50-251).
T3 construct: astacin, Astacus astacus, UniProt P07584; Carries a catalytic zinc ion; also called archetypal astacin; source: purified from the digestive fluid of the European freshwater crayfish Astacus astacus L
T3 sequence (P07584 50-251): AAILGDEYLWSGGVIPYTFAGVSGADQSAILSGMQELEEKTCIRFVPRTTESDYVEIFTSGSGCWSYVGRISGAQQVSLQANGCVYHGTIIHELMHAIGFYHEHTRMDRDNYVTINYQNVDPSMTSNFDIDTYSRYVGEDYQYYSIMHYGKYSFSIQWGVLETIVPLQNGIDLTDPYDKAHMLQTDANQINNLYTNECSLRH

B1: chimeric mutant mFBABA (other, mouse, UniProt P29699 19-136, looked up)
chain: APQGTGLGFRELACDDPEAEQVALLAVDYLNNHLLQGFKQVLNQIDKVKVWSRRPFGVVYEMEVDTLETTCHALDPTPLANCSVRQLTEHAVEGDCDFHILKQDGQFRVMHTQCHSTPVSKRKTHTTCPDCPSPIDLSNPSALEAATESLAKFNSKSPSKKYELVKVTKAMNQWVSGPAYYVEYLIKEAPCTKSQASCSLQHSDSEPVGICQGSTVQSSLRHVPLIQPVEKSVTVTCEFFESQPQPANANAVGPVPTANAALPADPPASVVVGPVVVPRGLSDHRTYHDLRHAFSPVASVESASGETLHSPKVGQPGAAGPVSPMCPGRIRHFKI
notes: mouse fetuin-A CY1 domain, UniProt P29699, residues A19-P136; mouse fetuin-B CY2 domain with linker, UniProt Q9QXC1, residues V145-Q269; mouse fetuin-A CTR domain, UniProt P29699, residues P254-I345; also called chimera of mouse fetuin-B with CY1 and CTR from mouse fetuin-A; source: adenovirus-infected COS-7 cells, purified (Ni-NTA)
Take B1: the “loss of inhibitory potency (change of Ki) against wild-type mouse fetuin-B” value is > 4 orders of magnitude with mouse ovastacin, > 4 orders of magnitude with human meprin β and > 3 orders of magnitude in the assay with crayfish astacin.

B2: mouse fetuin-B (natural protein, UniProt Q9QXC1 19-388, looked up)
chain: RSPPAPPLPQRPLSPLHPLGCNDSEVLAVAGFALQNINRDQKDGYMLSLNRVHDVREHYQEDMGSLFYLTLDVLETDCHVLSRKAQKDCKPRMFYESVYGQCKAMFHINKPRRVLYLPAYNCTLRPVSKRKTHTTCPDCPSPIDLSNPSALEAATESLAKFNSKSPSKKYELVKVTKAMNQWVSGPAYYVEYLIKEAPCTKSQASCSLQHSDSEPVGICQGSTVQSSLRHVPLIQPVEKSVTVTCEFFESQAQVPGDENPAVTQGPQKLPQKNTAPTSSPSVTAPRGSIQHLPELDDEKPEESKGGSPEEAFPVQLDLTTNPQGDTLDVSFLYLEPGDKKLVVLPFPGKEQRSAECPGPEKENNPLVLPP
modifications: N-glycans at N40 and N139
notes: mouse fetuin-B, UniProt Q9QXC1; residues R29-P388 (molecule B) and Q28-P388 (molecule D) are modelled in the complex; also called mFB; murine fetuin-B; source: baculovirus-transduced High Five cells, purified (Ni-NTA); not shown: His6, C-terminal, kept
For orientation: Ki means a dissociation constant, usually derived from enzyme kinetics or from competition with a known ligand. Read a low Ki as a stronger hold on the target. In the case of B2, the Ki came to 0.046 nM with mouse ovastacin, 0.081 nM in the assay with human meprin β and 0.1 nM in the assay with crayfish astacin.

B3: mouse fetuin-B D156A (natural protein, UniProt Q9QXC1 19-388, looked up)
chain: RSPPAPPLPQRPLSPLHPLGCNDSEVLAVAGFALQNINRDQKDGYMLSLNRVHDVREHYQEDMGSLFYLTLDVLETDCHVLSRKAQKDCKPRMFYESVYGQCKAMFHINKPRRVLYLPAYNCTLRPVSKRKTHTTCPACPSPIDLSNPSALEAATESLAKFNSKSPSKKYELVKVTKAMNQWVSGPAYYVEYLIKEAPCTKSQASCSLQHSDSEPVGICQGSTVQSSLRHVPLIQPVEKSVTVTCEFFESQAQVPGDENPAVTQGPQKLPQKNTAPTSSPSVTAPRGSIQHLPELDDEKPEESKGGSPEEAFPVQLDLTTNPQGDTLDVSFLYLEPGDKKLVVLPFPGKEQRSAECPGPEKENNPLVLPP
notes: also called mFB_(D156A); source: ExpiCHO-S cells, purified (Ni-NTA)
As for B3, the “loss of inhibitory potency (change of Ki) against wild-type mouse fetuin-B” value with mouse ovastacin was ~4 orders of magnitude; in the assay with human meprin β, ~2 orders of magnitude; with crayfish astacin it was ~2 orders of magnitude.

B4: mouse fetuin-B P155A (natural protein, UniProt Q9QXC1 19-388, looked up)
chain: RSPPAPPLPQRPLSPLHPLGCNDSEVLAVAGFALQNINRDQKDGYMLSLNRVHDVREHYQEDMGSLFYLTLDVLETDCHVLSRKAQKDCKPRMFYESVYGQCKAMFHINKPRRVLYLPAYNCTLRPVSKRKTHTTCADCPSPIDLSNPSALEAATESLAKFNSKSPSKKYELVKVTKAMNQWVSGPAYYVEYLIKEAPCTKSQASCSLQHSDSEPVGICQGSTVQSSLRHVPLIQPVEKSVTVTCEFFESQAQVPGDENPAVTQGPQKLPQKNTAPTSSPSVTAPRGSIQHLPELDDEKPEESKGGSPEEAFPVQLDLTTNPQGDTLDVSFLYLEPGDKKLVVLPFPGKEQRSAECPGPEKENNPLVLPP
notes: also called mFB_(P155A); source: ExpiCHO-S cells, purified (Ni-NTA)
Take B4: the “loss of inhibitory potency (change of Ki) against wild-type mouse fetuin-B” value in the assay with mouse ovastacin is ~2 orders of magnitude; in the assay with human meprin β, ~1 orders of magnitude; in the assay with crayfish astacin, ~1 orders of magnitude.

B5: mouse fetuin-B P155A+D156A (natural protein, UniProt Q9QXC1 19-388, looked up)
chain: RSPPAPPLPQRPLSPLHPLGCNDSEVLAVAGFALQNINRDQKDGYMLSLNRVHDVREHYQEDMGSLFYLTLDVLETDCHVLSRKAQKDCKPRMFYESVYGQCKAMFHINKPRRVLYLPAYNCTLRPVSKRKTHTTCAACPSPIDLSNPSALEAATESLAKFNSKSPSKKYELVKVTKAMNQWVSGPAYYVEYLIKEAPCTKSQASCSLQHSDSEPVGICQGSTVQSSLRHVPLIQPVEKSVTVTCEFFESQAQVPGDENPAVTQGPQKLPQKNTAPTSSPSVTAPRGSIQHLPELDDEKPEESKGGSPEEAFPVQLDLTTNPQGDTLDVSFLYLEPGDKKLVVLPFPGKEQRSAECPGPEKENNPLVLPP
notes: also called mFB_(P155A,D156A); double mutant; source: ExpiCHO-S cells, purified (Ni-NTA)
Regarding B5, the entries for the “loss of inhibitory potency (change of Ki) against wild-type mouse fetuin-B” value in the assay with mouse ovastacin, with human meprin β and with crayfish astacin were 4 orders of magnitude, 4 orders of magnitude and 2 orders of magnitude, respectively.
